Substitutions are numbered along the chain they refer to.

The target of assay [1] is T1, human CD22-His protein (Sino Biological Inc.) (human, UniProt P20273 20-687).
T1 construct: Bought protein coated on the ELISA plate (100 ng/well); not shown: His tag
T1 sequence (looked up): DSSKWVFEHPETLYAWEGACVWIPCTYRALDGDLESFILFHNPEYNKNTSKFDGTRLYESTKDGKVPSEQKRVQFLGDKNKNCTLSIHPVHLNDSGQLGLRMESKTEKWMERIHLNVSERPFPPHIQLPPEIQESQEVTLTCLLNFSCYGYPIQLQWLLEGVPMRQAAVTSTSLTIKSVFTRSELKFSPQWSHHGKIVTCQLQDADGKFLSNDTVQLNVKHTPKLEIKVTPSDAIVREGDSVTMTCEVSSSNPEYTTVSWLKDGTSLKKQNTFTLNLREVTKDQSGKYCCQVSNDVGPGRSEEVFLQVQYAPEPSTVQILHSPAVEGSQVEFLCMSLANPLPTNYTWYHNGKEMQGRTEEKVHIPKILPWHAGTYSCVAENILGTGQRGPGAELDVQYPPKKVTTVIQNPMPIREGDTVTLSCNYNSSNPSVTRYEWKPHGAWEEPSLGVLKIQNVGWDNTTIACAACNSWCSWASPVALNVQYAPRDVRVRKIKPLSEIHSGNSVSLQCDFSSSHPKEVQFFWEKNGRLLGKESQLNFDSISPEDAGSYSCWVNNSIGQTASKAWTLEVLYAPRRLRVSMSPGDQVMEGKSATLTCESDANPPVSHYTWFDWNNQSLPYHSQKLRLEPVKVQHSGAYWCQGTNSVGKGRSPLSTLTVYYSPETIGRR
Nature of the assay: ELISA, human CD22-His coated, anti-human Cκ-HRP detection. How it is done:
(§1) Microtiter plates (Corning Inc., MA, USA) were coated overnight at 4° C. with human CD22-His protein (100 ng/well, Sino Biological Inc., Beijing, China). The wells were blocked for 1 hour at 37° C. with 150 μl of 3% BSA (w/v) in PBS, and serial dilutions of the anti-CD22 scFv-Cκ-HA fusion protein, prepared in 3% BSA in PBS, were added to each well. After incubation for 1.5 hours at 37° C., the plates were washed three times with PBST (PBS containing 0.05% Tween-20), followed by incubation for 1 hour at 37° C. with an HRP-conjugated anti-human CK antibody (Millipore, CA, USA). The plates were washed three times with PBST, and the amount of bound antibody was determined by adding 2,2′-azino-bis(3-ethylbenzothiazoline-6-sulfonic acid) (Thermo Fisher Scientific Inc., MA, USA). The resulting OD₄₀₅ was measured using a microplate spectrophotometer.

Another assay concerns OCI-Ly7 cells. The assay is described as follows: Flow cytometry analysis using anti-CD22 scFv-Cκ-HA fusion protein. Type of assay: binding, human. As to conditions: scFv-Cκ-HA fusion protein 0.25 μM; FIG. 2. How it is done: OCI-Ly7 cells were aliquoted into 1.5 ml tubes at a density of 3×10^5 cells per tube. The anti-CD22 scFv-Cκ-HA fusion protein (0.25 μM) was added to each tube, followed by incubation on ice for 30 minutes. After washing twice with MACS buffer (Miltenyi Biotec), the cells were incubated with Alexa Fluor 647-labeled mouse anti-HA antibody (Clone #912426, R&D Systems, MN, USA) on ice for 30 minutes. Then, the cells were washed twice with MACS buffer, resuspended in 150 μL of 1% paraformaldehyde in MACS buffer, and stored overnight at 4° C. The cells were analyzed by flow cytometry using a FACS Canto II instrument (BD Bioscience, San Jose, CA, USA). For each sample, 10,000 cells were analyzed.
A general note: In flow cytometry, cells or beads pass a laser one at a time.

The target of another assay is T2, human CD22-His protein (Homo sapiens, UniProt P20273).
T2 construct: His; purchased Sino Biological Inc., Beijing, China
T2 sequence (P20273 20-847): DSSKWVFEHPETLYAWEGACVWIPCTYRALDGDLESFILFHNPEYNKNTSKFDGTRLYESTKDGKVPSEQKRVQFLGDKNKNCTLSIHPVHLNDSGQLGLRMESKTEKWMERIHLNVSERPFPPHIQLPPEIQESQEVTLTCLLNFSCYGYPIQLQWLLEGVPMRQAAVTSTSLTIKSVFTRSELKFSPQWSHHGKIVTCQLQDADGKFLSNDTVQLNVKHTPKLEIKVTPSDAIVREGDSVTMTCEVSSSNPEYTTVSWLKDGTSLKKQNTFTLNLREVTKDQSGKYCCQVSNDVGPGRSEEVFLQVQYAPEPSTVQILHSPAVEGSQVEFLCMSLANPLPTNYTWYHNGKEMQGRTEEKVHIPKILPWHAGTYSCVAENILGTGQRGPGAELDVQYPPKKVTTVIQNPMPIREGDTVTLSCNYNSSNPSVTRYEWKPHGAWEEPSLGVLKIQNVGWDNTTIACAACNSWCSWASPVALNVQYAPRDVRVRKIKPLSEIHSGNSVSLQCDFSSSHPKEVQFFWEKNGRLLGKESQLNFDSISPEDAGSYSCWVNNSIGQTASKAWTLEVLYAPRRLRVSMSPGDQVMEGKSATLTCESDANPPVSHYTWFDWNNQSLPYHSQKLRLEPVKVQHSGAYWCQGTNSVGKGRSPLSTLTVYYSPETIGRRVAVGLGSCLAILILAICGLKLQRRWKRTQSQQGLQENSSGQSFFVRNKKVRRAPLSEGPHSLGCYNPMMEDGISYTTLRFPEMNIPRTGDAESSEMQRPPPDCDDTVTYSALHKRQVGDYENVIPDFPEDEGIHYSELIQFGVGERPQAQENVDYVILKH
Nature of the assay: ELISA analysis using anti-CD22 scFv-Cκ-HA fusion protein. The format is binding. As to conditions: serial dilutions, coated human CD22-His 100 ng/well, FIG. 1. As for the experimental part: as §1, with “OD405” for “OD₄₀₅”
In general terms: An ELISA detects its analyte on a solid surface through an enzyme-linked reagent.

The target of assay [2] is T1, human CD22-His protein (Sino Biological …). Nature of the assay: ELISA, human CD22-His coated, anti-human IgG Fc-HRP detection. As for the experimental part: Microtiter plates (Corning Inc., MA, USA) were coated overnight at 4° C. with human CD22-His protein (100 ng/well, Sino Biological Inc., Beijing, China). The wells were blocked for 1 hour at 37° C. with 150 μl of 3% BSA (w/v) in PBS, after which serial dilutions of the IgG protein prepared in 3% BSA in PBS were added to each well. After incubation for 1.5 hours at 37° C., the plates were washed three times with PBST (PBS containing 0.05% Tween-20), followed by incubation for 1 hour at 37° C. with an HRP-conjugated anti-human IgG (Fc-specific) antibody (Thermo Fisher Scientific, USA). The plates were washed three times with PBST, and the amount of bound antibody was determined by adding 2,2′-azino-bis(3-ethylbenzothiazoline-6-sulfonic acid) (Thermo Fisher Scientific Inc., MA, USA). The resulting OD₄₀₅ was measured using a microplate spectrophotometer.

B1: recombinant anti-CD22 scFv-Cκ-HA fusion protein CI4-47 (scFv)
scFv: LTQPSSVSANPGETVKITCSGGSGGYGWYQQKSPGSAPVSLIYDNDQRPSDIPSRFSGSKSGSTGTLTITGVQADDEAVYYCGSYDSSYVGIFGAGTTLTVLGGGGSGGGGSGGGGSAVTLDESGGGLQTPGGALSLVCKASGFTFSNYCMQWVRQAPGKGLEWVAGIGSSGTGTYYGSAVRGRATISRDNGQSTVRLQLNNLRAEDTGTYYCARDYGSDSGCGWGIYAGEIDAWGHGTEVIVSSGGGGSGGGGSGGGGSRTVAAPSVFIFPPSDEQLKSGTASVVCLLNNFYPREAKVQWKVDNALQSGNSQESVTEQDSKDSTYSLSSTLTLSKADYEKHKVYACEVTHQGLSSPVTKSFNRGESGGAYPYDVPDYAS
notes: Chicken-derived scFv fused to a human constant kappa region and an HA tag; expressed in HEK293F cells, purified on KappaSelect; also called CI4-47 scFv-Cκ-HA
For B1, in assay [1], the binding result is listed as “binds”.

B2: CI4-47: recombinant anti-CD22 scFv-Cκ-HA fusion protein (protein)
scFv: B1 scFv
Regarding B2, the “binding to OCI-Ly7 cells (flow cytometry)” value in the assay with OCI-Ly7 cells was “strong binding”. For the same molecule, in the assay with human CD22-His protein, the “binding to CD22 (enzyme immunoassay, OD405)” value is given as “bind well”.

B3: anti-CD22 IgG protein 2-3-14 (antibody, V domains shown)
VH: AVTLDESGGGLQTPGGGLSLVCKASGFSFSDYGMGWVRQAPGKGLEFVASISNTGSYTDYGAAVKGRATISRDNGQSTLRLQLNNLRAEDTGTYFCAKSAYGGSYGSSSIDAWGHGTEVIVSS
VL: LTQPSSVSANPGETVKITCSGSNNTYGWYQQKAPGSAPVTVIYDNTNRPSDIPSRFSGSKSGSTNTLTITGVQAEDEAVYFCGSRDSTYVGIFGAGTTLTVLR
notes: also called Feb; 3, 2014
With B3, in assay [2], the binding result was “binds”.

B4: anti-CD22 IgG protein 2-3-14_H2-40 (antibody, V domains shown)
VH: B3 VH with S50F, I51L, S52G, N53S, T54S, G55S
VL: B3 VL
Consider B4, for which the binding result in assay [2] is reported as “binds”.

B5: anti-CD22 IgG protein 2-3-14_H1-24 (antibody, V domains shown)
VH: B3 VH with S28A, S30G, D31R, Y32S, G33S
VL: B3 VL
Take B5: in assay [2], the binding result is “binds”.

B6: anti-CD22 IgG protein CI4-47_8-1_H1-2-37 (antibody, V domains shown)
VH: EVQLLESGGGLVQPGGSLRLSCAASGFTFSRHGMYWVRQAPGKGLEWVSGIGSSGTGTYYGSAVRGRFTISRDNSKNTLYLQMNSLRAEDTAVYYCARDYGSDSGVGWGIYAGEIDAWGQGTLVTVSS
VL: LTQPPSVSVSPGQTARITCSGGSGGYGWYQQKPGSAPVSVIYDNDQRPSGIPERFSGSSSGTTVTLTISGVQAEDEADYYCGSYDSSYVGIFGGGTKLTVLR
B6: the binding result in assay [2] is on record as “binds”.

B7: anti-CD22 IgG protein CI4-47_8-1 (antibody, V domains shown)
VH: B6 VH with R31N, H32Y, G33C, Y35S, V106C
VL: B6 VL
For B7, the binding result in assay [2] is reported as “binds”.

B8: anti-CD22 IgG protein CI4-47_8-1_H1-2-1 (antibody, V domains shown)
VH: B6 VH with R31K, M34H, V106I
VL: B6 VL
For the molecule B8, the binding result in assay [2] was “binds”.

B9: recombinant anti-CD22 scFv-Cκ-HA fusion protein 2-3-14 (scFv)
scFv: LTQPSSVSANPGETVKITCSGSNNTYGWYQQKAPGSAPVTVIYDNTNRPSDIPSRFSGSKSGSTNTLTITGVQAEDEAVYFCGSRDSTYVGIFGAGTTLTVLGGGGSGGGGSGGGGSAVTLDESGGGLQTPGGGLSLVCKASGFSFSDYGMGWVRQAPGKGLEFVASISNTGSYTDYGAAVKGRATISRDNGQSTLRLQLNNLRAEDTGTYFCAKSAYGGSYGSSSIDAWGHGTEVIVSSGGGGSGGGGSGGGGSRTVAAPSVFIFPPSDEQLKSGTASVVCLLNNFYPREAKVQWKVDNALQSGNSQESVTEQDSKDSTYSLSSTLTLSKADYEKHKVYACEVTHQGLSSPVTKSFNRGESGGAYPYDVPDYAS
notes: The text prints the clone name 2-3-14 as 'Feb; 3, 2014' in several paragraphs (date conversion artefact); also called Feb; 3, 2014; 2-3-14 scFv-Cκ-HA
For B9, the binding result in assay [1] was “binds”.

(Values after patent US20260176354A1, “ANTIBODY BINDING TO CD22, AND BISPECIFIC ANTIBODY, CHIMERIC ANTIGEN RECEPTOR AND ANTIBODY-DRUG CONJUGATE COMPRISING SAME, AND USE THEREOF” (THE ASAN FOUNDATION, priority 2022, published 2026).)
